This note sets out measurements from patent publication US11912794B2, “Modulation of structured polypeptide specificity” (BicycleRD Limited, priority 2011, dated 2024).

The test addresses T1, Biotinylated hPK (Homo sapiens, UniProt P03952).
T1 construct: IHPKA, from human plasma; purchased Innovative Research, Novi, MI, USA IHPKA; host or cells: human plasma
Briefly: Phage selections, abundance of sequences in selection outputs. The format is binding. The following applies: for Frequency (relative abundance in the total selection outputs): randomised WPAR motif at positions 2, 3, 4 & 5 within the 06-34-03 sequence. On the procedure:
Glycerol stocks of phage libraries were diluted to OD600=0.1 in 500 ml 2YT/chloramphenicol (30 μg/ml) cultures and phage were produced at 30° C. over night (15-16 hrs). Phage were purified and chemically modified as described in Heinis, et al., Nat Chem Biol 2009, 5 (7), 502-7 Biotinylated hPK (3 μg) (IHPKA, from human plasma, Innovative Research, Novi, MI, USA) was incubated with 50 μl pre-washed magnetic streptavidin beads (Dynal, M-280 from Invitrogen, Paisley, UK) for 10 minutes at RT. […] Blocked beads were then mixed with the blocked chemically modified phage and incubated for 30 minutes on a rotating wheel at RT. Beads were washed 8 times with washing buffer containing 0.1% Tween 20 and twice with washing buffer before incubation with 100 μl of 50 mM glycine, pH 2.2 for 5 minutes. Eluted phage were transferred to 50 μl of 1 M Tris-Cl, pH 8 for neutralization, incubated with 30 ml TG1 cells at OD600=0.4 for 90 minutes at 37° C. and the cells were plated on large 2YT/chloramphenicol plates. One or two additional rounds of panning were performed using the same procedures. In the second round of selection, neutravidin-coated magnetic beads were used to prevent the enrichment of streptavidin-specific peptides. The neutravidin beads were prepared by reacting 0.8 mg neutravidin (Pierce, Rockford, IL, USA) with 0.5 ml tosyl-activated magnetic beads (Dynal, M-280 from Invitrogen, Paisley, UK) according to the supplier's instructions.
The WPAR (SEQ ID NO: 18) motif identified from Example 1 was analysed in the context of the 06-34-03 peptide, in order to identify alternatives or improvements to the WPAR (SEQ ID NO: 18) motif. A library was constructed where positions 1, 6, 7, 8, 9 &10 of 06-34-03 were fixed and positions 2, 3, 4 & 5 were randomised (see ‘Randomisation of peptide domains—Library construction’ in Methods above). Selections against human plasma Kallikrein were performed at a variety of stringencies (see Phage selections' in Methods above). All output sequences were identified and analysed for target binding (see ‘Randomisation of peptide domains—Assay of binding of individual clones’ in Methods above). Table 17 lists each unique sequence, its relative abundance in the selection output (frequency), and a rank number according to target binding strength.

[1] abbreviates: 2nd stringency from High (1st value of cell).
Setting [2] is: 3rd stringency from High (2nd value of cell).
The mark [3] stands for this setting: 4th stringency from High (3rd value of cell).
Where [4] appears, read: 5th stringency from High (4th value of cell).

Ends that are not written are not given here.

T1 sequence (P03952 20-638): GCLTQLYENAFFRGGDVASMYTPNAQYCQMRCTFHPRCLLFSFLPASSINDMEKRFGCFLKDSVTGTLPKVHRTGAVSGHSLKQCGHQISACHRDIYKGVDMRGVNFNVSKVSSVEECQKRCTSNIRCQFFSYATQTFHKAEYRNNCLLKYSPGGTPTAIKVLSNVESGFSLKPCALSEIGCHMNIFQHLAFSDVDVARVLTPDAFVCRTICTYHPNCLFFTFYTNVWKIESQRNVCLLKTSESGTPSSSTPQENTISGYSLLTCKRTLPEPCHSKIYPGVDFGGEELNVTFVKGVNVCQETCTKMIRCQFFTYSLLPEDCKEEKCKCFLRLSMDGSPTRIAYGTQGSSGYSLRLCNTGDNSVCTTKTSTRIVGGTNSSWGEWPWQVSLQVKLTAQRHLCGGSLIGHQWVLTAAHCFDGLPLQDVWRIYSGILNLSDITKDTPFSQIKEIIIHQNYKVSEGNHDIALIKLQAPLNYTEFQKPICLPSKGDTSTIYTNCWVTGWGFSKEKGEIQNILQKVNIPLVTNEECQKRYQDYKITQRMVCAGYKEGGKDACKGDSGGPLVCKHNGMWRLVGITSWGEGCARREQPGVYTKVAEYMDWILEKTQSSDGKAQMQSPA

Take “FPFR: phage clone: FPFR at positions 2-5 within the 06-34-03 sequence, TBMB-cyclised (also: TBMB-cyclised within the 06-34-03 context, the cysteines lie outside this motif)”: the “Relative abundance of motif in selection output” value reads like this: under setting [1], 19%; under setting [2], 9%; under setting [3], 4%; under setting [4], 13%; (stringency High) 7%; (stringency LOW) 11%.
Regarding “FPYR: phage clone: FPYR at positions 2-5 within the 06-34-03 sequence, TBMB-cyclised (also: TBMB-cyclised within the 06-34-03 context, the cysteines lie outside this motif)”, the “Relative abundance of motif in selection output” value amounted to 3% under setting [1]; 3% under setting [2]; 7% under setting [3]; 16% under setting [4]; 7% (stringency High); 4% (stringency LOW).
For “SEQ ID NO: 73 (CSWPARCTHQDLC; Synthetic sequence Kallikrein binder identified from selections using a randomised WPAR motif at positions 2, 3, 4 & 5 within the 06-34-03 sequence of PCT/EP2012/069898 (SEQ ID NO 58))”, the “Frequency (relative abundance in the total selection outputs)” value was 24.
Turning to “SEQ ID NO: 74 (CSWPSRCTHQDLC; Synthetic sequence Kallikrein binder identified from selections using a randomised WPAR motif at positions 2, 3, 4 & 5 within the 06-34-03 sequence of PCT/EP2012/069898 (SEQ ID NO 58))”, the “Frequency (relative abundance in the total selection outputs)” value stood at 51.
As to “SEQ ID NO: 76 (CSWLARCTHQDLC; Synthetic sequence Kallikrein binder identified from selections using a randomised WPAR motif at positions 2, 3, 4 & 5 within the 06-34-03 sequence of PCT/EP2012/069898 (SEQ ID NO 58))”, the “Frequency (relative abundance in the total selection outputs)” value was found to be 8.
In the case of “SEQ ID NO: 77 (CSFPYRCTHQDLC; Synthetic sequence Kallikrein binder identified from selections using a randomised WPAR motif at positions 2, 3, 4 & 5 within the 06-34-03 sequence of PCT/EP2012/069898 (SEQ ID NO 58))”, the “Frequency (relative abundance in the total selection outputs)” value came out at 12.
Take “SEQ ID NO: 78 (CSFPFKCTHQDLC; Synthetic sequence Kallikrein binder identified from selections using a randomised WPAR motif at positions 2, 3, 4 & 5 within the 06-34-03 sequence of PCT/EP2012/069898 (SEQ ID NO 58))”: the “Frequency (relative abundance in the total selection outputs)” value was 4.
As to “SEQ ID NO: 79 (CSWAARCTHQDLC; Synthetic sequence Kallikrein binder identified from selections using a randomised WPAR motif at positions 2, 3, 4 & 5 within the 06-34-03 sequence of PCT/EP2012/069898 (SEQ ID NO 58))”, the “Frequency (relative abundance in the total selection outputs)” value was found to be 1.
Take “SEQ ID NO: 80 (CSHPYRCTHQDLC; Synthetic sequence Kallikrein binder identified from selections using a randomised WPAR motif at positions 2, 3, 4 & 5 within the 06-34-03 sequence of PCT/EP2012/069898 (SEQ ID NO 58))”: the “Frequency (relative abundance in the total selection outputs)” value is listed as 2.
In the case of “SEQ ID NO: 81 (CSHPFRCTHQDLC; Synthetic sequence Kallikrein binder identified from selections using a randomised WPAR motif at positions 2, 3, 4 & 5 within the 06-34-03 sequence of PCT/EP2012/069898 (SEQ ID NO 58))”, the “Frequency (relative abundance in the total selection outputs)” value amounted to 1.
The same measure, in the same setting: the same measure for “SEQ ID NO: 82 (CSWPYRCTHQDLC; Synthetic sequence Kallikrein binder identified from selections using a randomised WPAR motif at positions 2, 3, 4 & 5 within the 06-34-03 sequence of PCT/EP2012/069898 (SEQ ID NO 58))”: 3.
Regarding “SEQ ID NO: 83 (CRFPFKCTHQDLC; Synthetic sequence Kallikrein binder identified from selections using a randomised WPAR motif at positions 2, 3, 4 & 5 within the 06-34-03 sequence of PCT/EP2012/069898 (SEQ ID NO 58))”, the “Frequency (relative abundance in the total selection outputs)” value amounted to 1.
On the same count and under the same terms, the same measure for “SEQ ID NO: 86 (CSWPFRCTHQDLC; Synthetic sequence Kallikrein binder identified from selections using a randomised WPAR motif at positions 2, 3, 4 & 5 within the 06-34-03 sequence of PCT/EP2012/069898 (SEQ ID NO 58))”: 7; for “SEQ ID NO: 87 (CSFPIRCTHQDLC; Synthetic sequence Kallikrein binder identified from selections using a randomised WPAR motif at positions 2, 3, 4 & 5 within the 06-34-03 sequence of PCT/EP2012/069898 (SEQ ID NO 58))”: 1.
Consider “SEQ ID NO: 90 (CSYPIRCTHQDLC; Synthetic sequence Kallikrein binder identified from selections using a randomised WPAR motif at positions 2, 3, 4 & 5 within the 06-34-03 sequence of PCT/EP2012/069898 (SEQ ID NO 58))”, for which the “Frequency (relative abundance in the total selection outputs)” value is given as 2.
With “SEQ ID NO: 91 (CSWSARCTHQDLC; Synthetic sequence Kallikrein binder identified from selections using a randomised WPAR motif at positions 2, 3, 4 & 5 within the 06-34-03 sequence of PCT/EP2012/069898 (SEQ ID NO 58))”, the “Frequency (relative abundance in the total selection outputs)” value is listed as 10.
For “SEQ ID NO: 93 (CSYPFRCTHQDLC; Synthetic sequence Kallikrein binder identified from selections using a randomised WPAR motif at positions 2, 3, 4 & 5 within the 06-34-03 sequence of PCT/EP2012/069898 (SEQ ID NO 58))”, the “Frequency (relative abundance in the total selection outputs)” value came out at 1.
On the same count and under the same terms, in the case of “SEQ ID NO: 94 (CSFPYKCTHQDLC; Synthetic sequence Kallikrein binder identified from selections using a randomised WPAR motif at positions 2, 3, 4 & 5 within the 06-34-03 sequence of PCT/EP2012/069898 (SEQ ID NO 58))” it was 1.
“SEQ ID NO: 95 (CSFPWRCTHQDLC; Synthetic sequence Kallikrein binder identified from selections using a randomised WPAR motif at positions 2, 3, 4 & 5 within the 06-34-03 sequence of PCT/EP2012/069898 (SEQ ID NO 58))”: the “Frequency (relative abundance in the total selection outputs)” value is 1.
For the substance “SEQ ID NO: 96 (CSWHARCTHQDLC; Synthetic sequence Kallikrein binder identified from selections using a randomised WPAR motif at positions 2, 3, 4 & 5 within the 06-34-03 sequence of PCT/EP2012/069898 (SEQ ID NO 58))”, the “Frequency (relative abundance in the total selection outputs)” value is given as 1.
